Experimental data: paper PMC9931771, “Surufatinib plus toripalimab in patients with advanced solid tumors: a single-arm, open-label, phase 1 trial” (Journal of Cancer Research and Clinical Oncology, 2022)

Legend:
[1] = test system: NEN patients (Ki-67 ≥ 10%); set-up: method as in Lu et al. [2020]; conditions: NEN patients (Ki-67 ≥ 10%) after failure of first line therapy; ref Lu et al. [2020]; cited from earlier work
[2] = Phase 1 trial: pharmacokinetics of surufatinib and toripalimab (non-compartmental analysis); assay type: in vivo, human
Text: Blood samples were collected for PK evaluation at multiple time points on Cycle 1 Day 1, Cycle 2 Day 1, and Cycle 3 Day 1 for surufatinib and toripalimab, respectively.
DLT events were based on the DLT evaluable population, including patients who received at least 1 cycle of treatment and completed all safety assessments within the DLT assessment window or discontinued early due to DLT in the dose-escalation stage. All safety analyses, progression-free survival (PFS), and overall survival (OS) statistics were based on the safety population, including patients who received at least 1 dose of any study drug. All efficacy endpoints, excluding PFS and OS, were analyzed based on the efficacy evaluable population, including all patients who received at least 1 dose of any study drug and had tumor assessment at baseline and post drug administration prior to initiation of new anti-cancer therapies. The PK analysis was based on the PK population, which included all patients who received at least one dose of the study drug, had at least one PK sample collected and analyzed, and had no protocol deviation that might affect the PK data.
Two-sided 95% confidence interval (CI) of ORR and DCR were computed using the Exact (Clopper–Pearson) method. For time-to-event variables [PFS, OS, DoR (duration of response) and TTR (time to response)], median event time as well as the corresponding 95% CI were estimated using Kaplan–Meier method. All statistical analyses were performed using SAS 9.4 software. Adverse events (AEs) were graded by NCI CTCAE (Common Terminology Criteria for Adverse Events) v4.03, and coded using the Medical Dictionary for Regulatory Activities (MedDRA) v23.1. Treatment-related AEs (TRAEs) referred to AEs related to surufatinib or toripalimab, which were judged by the investigators. PK parameters were calculated by non-compartmental analysis using Phoenix WinNonlin v8.0.

[3] = surufatinib 200 mg + toripalimab 240 mg, C1D1, N 6
[4] = surufatinib 200 mg + toripalimab 240 mg, C2D1, N 4
[5] = surufatinib 200 mg + toripalimab 240 mg, C3D1, N 3
[6] = surufatinib 250 mg + toripalimab 240 mg, C1D1, N 12
[7] = surufatinib 250 mg + toripalimab 240 mg, C2D1, N 11
[8] = surufatinib 250 mg + toripalimab 240 mg, C3D1, N 10
[9] = surufatinib 300 mg + toripalimab 240 mg, C1D1, N 12
[10] = surufatinib 300 mg + toripalimab 240 mg, C2D1, N 10
[11] = surufatinib 300 mg + toripalimab 240 mg, C3D1, N 9

**Q.** Which results are given for toripalimab?
**A.** DCR [1]: 35%; ORR [1]: 20%; Toripalimab accumulation ratio of AUC0-τ ([2]; Cycle 2 Day 1 compared to Cycle 1 Day 1, 240 mg Q3W): 1.3–1.5; Toripalimab exposure (AUC0-τ) across surufatinib dose levels ([2]; concomitant administration with surufatinib at different dose levels): similar; Toripalimab AUC0-τ, geometric mean (CV%) [2, 3]: 15925 (22.8) h×µg/mL; Toripalimab CL, geometric mean (CV%) [2, 3]: 11.1 (30.8) mL/h; Toripalimab Cmax, geometric mean (CV%) [2, 3]: 78.1 (15.2) µg/mL; Toripalimab Tmax, median [2, 3]: 1.96 h; Toripalimab t1/2, median [2, 3]: 9.62 days; Toripalimab AUC0-τ, geometric mean (CV%) [2, 4]: 21512 (26.4) h×µg/mL; Toripalimab CL, geometric mean (CV%) [2, 4]: 11.2 (24.3) mL/h; Toripalimab Cmax, geometric mean (CV%) [2, 4]: 96.2 (17.9) µg/mL; Toripalimab Tmax, median [2, 4]: 2.63 h; Toripalimab t1/2, median [2, 4]: 13.3 days; Toripalimab AUC0-τ, geometric mean (CV%) [2, 5]: 24626 (34.9) h×µg/mL; Toripalimab CL, geometric mean (CV%) [2, 5]: 9.75 (29.6) mL/h; Toripalimab Cmax, geometric mean (CV%) [2, 5]: 110 (29.0) µg/mL; Toripalimab Tmax, median [2, 5]: 1.45 h; Toripalimab t1/2, median [2, 5]: 16.2 days; Toripalimab AUC0-τ, geometric mean (CV%) [2, 6]: 14142 (25.6) h×µg/mL; Toripalimab CL, geometric mean (CV%) [2, 6]: 13.0 (32.9) mL/h; Toripalimab Cmax, geometric mean (CV%) [2, 6]: 71.4 (21.6) µg/mL; Toripalimab Tmax, median [2, 6]: 1.85 h; Toripalimab t1/2, median [2, 6]: 9.88 days; Toripalimab AUC0-τ, geometric mean (CV%) [2, 7]: 17176 (31.5) h×µg/mL; Toripalimab CL, geometric mean (CV%) [2, 7]: 14.0 (37.2) mL/h; Toripalimab Cmax, geometric mean (CV%) [2, 7]: 83.8 (24.5) µg/mL; Toripalimab Tmax, median [2, 7]: 1.13 h; Toripalimab t1/2, median [2, 7]: 10.8 days; Toripalimab AUC0-τ, geometric mean (CV%) [2, 8]: 20157 (39.5) h×µg/mL; Toripalimab CL, geometric mean (CV%) [2, 8]: 11.9 (52.0) mL/h; Toripalimab Cmax, geometric mean (CV%) [2, 8]: 97.4 (25.0) µg/mL; Toripalimab Tmax, median [2, 8]: 1.87 h; Toripalimab t1/2, median [2, 8]: 10.2 days; Toripalimab AUC0-τ, geometric mean (CV%) [2, 9]: 16458 (25.0) h×µg/mL; Toripalimab CL, geometric mean (CV%) [2, 9]: 11.0 (22.1) mL/h; Toripalimab Cmax, geometric mean (CV%) [2, 9]: 81.2 (24.5) µg/mL; Toripalimab Tmax, median [2, 9]: 1.12 h; Toripalimab t1/2, median [2, 9]: 9.75 days; Toripalimab AUC0-τ, geometric mean (CV%) [2, 10]: 20660 (33.7) h×µg/mL; Toripalimab CL, geometric mean (CV%) [2, 10]: 11.6 (27.6) mL/h; Toripalimab Cmax, geometric mean (CV%) [2, 10]: 98.1 (27.5) µg/mL; Toripalimab Tmax, median [2, 10]: 1.26 h; Toripalimab t1/2, median [2, 10]: 10.2 days; Toripalimab AUC0-τ, geometric mean (CV%) [2, 11]: 20063 (46.6) h×µg/mL; Toripalimab CL, geometric mean (CV%) [2, 11]: 12.0 (35.8) mL/h; Toripalimab Cmax, geometric mean (CV%) [2, 11]: 103 (33.2) µg/mL; Toripalimab Tmax, median [2, 11]: 1.17 h; Toripalimab t1/2, median [2, 11]: 10 days
